# Key:
# [1] = target: HLA-A*02:01; test: IEDB peptide-MHC binding, purified MHC/competitive/fluorescence; filed as Kd, often an IC50 or EC50 that approximates it; ≥ and ≤ were set here for values at or beyond the usual limits of such assays
# [2] = target: HLA-A*02:19; test: as above
# [3] = target: HLA-A*02:01; test: IEDB peptide-MHC binding, purified MHC/direct/fluorescence; filed as Kd, often an IC50 or EC50 that approximates it; ≥ and ≤ were set here for values at or beyond the usual limits of such assays
# [4] = target: HLA-A*01:01; test: as above
# [5] = target: HLA-B*40:01; test: as above
# [6] = target: HLA-A*69:01; test: as above
# [7] = target: HLA-A*31:01; test: as above
# [8] = target: HLA-B*35:01; test: as above
# [9] = target: HLA-B*58:01; test: as above
# [10] = target: HLA-A*24:03; test: as above; settings: source organism: Salmonella enterica subsp. enterica serovar Typhi
# [11] = target: HLA-A*11:01; test: as above
# [12] = target: HLA-B*27:05; test: as above
# [13] = target: HLA-A*26:01; test: as above
# [14] = target: HLA-A*03:01; test: as above
# [15] = target: HLA-B*08:01; test: as above
# [16] = target: HLA-A*30:01; test: as above; settings: source organism: Salmonella enterica subsp. enterica serovar Typhi
# [17] = target: HLA-B*15:01; test: as above
# [18] = target: HLA-C*12:03; test: as above; settings: source organism: Mycobacterium tuberculosis variant bovis BCG str. Pasteur 1173P2
# [19] = target: HLA-B*57:01; test: IEDB peptide-MHC binding, purified MHC/competitive/fluorescence; filed as Kd, often an IC50 or EC50 that approximates it; ≥ and ≤ were set here for values at or beyond the usual limits of such assays; settings: source organism: Salmonella enterica subsp. enterica serovar Choleraesuis str. SC-B67
# [20] = target: HLA-B*39:01; test: as above; settings: source organism: Salmonella enterica subsp. enterica serovar Choleraesuis str. SC-B67
# [21] = target: HLA-B*18:01; test: as above; settings: source organism: Salmonella enterica subsp. enterica serovar Choleraesuis str. SC-B67
# [22] = target: HLA-A*23:01; test: as above; settings: source organism: Salmonella enterica subsp. enterica serovar Choleraesuis str. SC-B67
# [23] = target: HLA-A*24:03; test: as above; settings: source organism: Salmonella enterica subsp. enterica serovar Choleraesuis str. SC-B67
# [24] = target: HLA-B*15:17; test: as above; settings: source organism: Salmonella enterica subsp. enterica serovar Choleraesuis str. SC-B67
# [25] = target: HLA-A*29:02; test: as above; settings: source organism: Salmonella enterica subsp. enterica serovar Choleraesuis str. SC-B67
# [26] = target: HLA-B*27:03; test: as above; settings: source organism: Salmonella enterica subsp. enterica serovar Choleraesuis str. SC-B67
# [27] = target: HLA-B*46:01; test: as above; settings: source organism: Salmonella enterica subsp. enterica serovar Choleraesuis str. SC-B67
# [28] = target: HLA-A*26:01; test: as above; settings: source organism: Salmonella enterica subsp. enterica serovar Choleraesuis str. SC-B67
# [29] = target: HLA-A*03:01; test: as above; settings: source organism: Salmonella enterica subsp. enterica serovar Choleraesuis str. SC-B67
# [30] = target: HLA-B*15:01; test: as above; settings: source organism: Salmonella enterica subsp. enterica serovar Choleraesuis str. SC-B67
# [31] = target: HLA-A*02:12; test: as above; settings: source organism: Burkholderia pseudomallei 668
# [32] = target: HLA-B*57:01; test: IEDB peptide-MHC binding, purified MHC/direct/fluorescence; filed as Kd, often an IC50 or EC50 that approximates it; ≥ and ≤ were set here for values at or beyond the usual limits of such assays; settings: source organism: Rickettsia felis
# [33] = target: HLA-B*15:17; test: as above; settings: source organism: Rickettsia felis
# [34] = target: HLA-B*07:02; test: as above; settings: source organism: Rickettsia felis
# [35] = source organism: Acinetobacter baylyi
# [36] = source organism: Salmonella enterica
# [37] = source organism: Salmonella enterica subsp. enterica serovar Typhi
# [38] = source organism: Salmonella enterica subsp. enterica serovar Choleraesuis str. SC-B67
# [39] = source organism: Rickettsia felis
# [40] = source organism: Rickettsia prowazekii
sequence,measurement,setting,value
DLMLLSYSL,Kd,[1]; [35],0.16 µM
same,Kd,[2]; [35],0.0141 µM
EHFYWGSVF,Kd,[3]; [36],≥ 20 µM
same,Kd,[4]; [36],≥ 20 µM
same,Kd,[5]; [36],≥ 20 µM
same,Kd,[6]; [36],≥ 20 µM
same,Kd,[7]; [36],≥ 20 µM
same,Kd,[8]; [37],0.427 µM
same,Kd,[9]; [36],≥ 20 µM
same,Kd,[10],0.318 µM
same,Kd,[11]; [37],7.98 µM
same,Kd,[12]; [36],≥ 20 µM
same,Kd,[13]; [36],≥ 20 µM
same,Kd,[14]; [36],≥ 20 µM
same,Kd,[15]; [36],≥ 20 µM
same,Kd,[16],19.2 µM
same,Kd,[17]; [37],1.89 µM
FTRDTGATL,Kd,[18],≤ 0.001 µM
GIALAVPCV,Kd,[19],≥ 20 µM
same,Kd,[20],≥ 20 µM
same,Kd,[1]; [38],0.0007 µM
same,Kd,[21],≥ 20 µM
same,Kd,[22],≥ 20 µM
same,Kd,[23],≥ 20 µM
same,Kd,[24],≥ 20 µM
same,Kd,[25],3 µM
same,Kd,[2]; [38],0.0018 µM
same,Kd,[26],≥ 20 µM
same,Kd,[27],≥ 20 µM
same,Kd,[28],≥ 20 µM
same,Kd,[29],≥ 20 µM
same,Kd,[30],≥ 20 µM
GIYGAVIPL,Kd,[1]; source organism: Burkholderia pseudomallei 668,≤ 0.0001 µM
same,Kd,[31],0.0086 µM
GSFKEYVFW,Kd,[32],0.167 µM
same,Kd,[3]; [39],≥ 20 µM
same,Kd,[4]; [39],≥ 20 µM
same,Kd,[5]; [39],≥ 20 µM
same,Kd,[6]; [39],≥ 20 µM
same,Kd,[7]; [39],≥ 20 µM
same,Kd,[8]; [40],1.9 µM
same,Kd,[9]; [40],0.00781 µM
same,Kd,[33],0.105 µM
same,Kd,[11]; [39],≥ 20 µM
same,Kd,[12]; [39],≥ 20 µM
same,Kd,[13]; [39],≥ 20 µM
same,Kd,[14]; [39],≥ 20 µM
same,Kd,[15]; [39],≥ 20 µM
same,Kd,[17]; [40],5.69 µM
same,Kd,[34],≥ 20 µM

# Reference: the Immune Epitope Database (IEDB)
